According to publication PMC9630439:
Where “and” joins values, the source holds several entries; their conditions need not be identical. Identical values can stand only once.

Assays:
[1] = target: GPa3b17 TCR complex expressed without CD3-ζ (TCR-αβ/CD3-δγε2) (human) (UniProt P07766); experiment: flow cytometry on cells; CHO cells transduced with lentivirus combinations, stained with Alexa Fluor 647-labelled gp100/HLA-A2, 30 min at 4 °C in the dark
[2] = target: fully assembled GPa3b17 TCR (TCRαβ/CD3δγε2ζ2 complex, CD3 cytosolic domains truncated, CD3-δ tagged with GFP2) (human) (UniProt P07766); experiment: as above

gp100/HLA-A2 (soluble gp100 peptide / HLA-A*02:01 / β2-microglobulin monomer with C-terminal HPC-4 epitope) (from UniProt P61769 22-119) (peptide-MHC)
median fluorescence intensity following pMHC staining [1]: 116000
median fluorescence intensity following pMHC staining [2]: 135000 and 144000
